Source: patent publication US7070788 (US Dept. of Health and Human Services, dated 2006)
Blank lines part the entries; values can stand above or below the binder they belong to.

Columns and labels:
[1] = target: hCG (LH/CG) receptor of MA-10 transformed murine Leydig cells (murine, UniProt P30730 27-700); assay: cell-based or functional assay
[2] = target: human TSH receptor (CHO-JP09 cells) (human, UniProt P16473 21-764); assay: cell-based or functional assay

Chain of hCG (LH/CG) receptor of MA-10 transformed murine Leydig cells (P30730 27-700): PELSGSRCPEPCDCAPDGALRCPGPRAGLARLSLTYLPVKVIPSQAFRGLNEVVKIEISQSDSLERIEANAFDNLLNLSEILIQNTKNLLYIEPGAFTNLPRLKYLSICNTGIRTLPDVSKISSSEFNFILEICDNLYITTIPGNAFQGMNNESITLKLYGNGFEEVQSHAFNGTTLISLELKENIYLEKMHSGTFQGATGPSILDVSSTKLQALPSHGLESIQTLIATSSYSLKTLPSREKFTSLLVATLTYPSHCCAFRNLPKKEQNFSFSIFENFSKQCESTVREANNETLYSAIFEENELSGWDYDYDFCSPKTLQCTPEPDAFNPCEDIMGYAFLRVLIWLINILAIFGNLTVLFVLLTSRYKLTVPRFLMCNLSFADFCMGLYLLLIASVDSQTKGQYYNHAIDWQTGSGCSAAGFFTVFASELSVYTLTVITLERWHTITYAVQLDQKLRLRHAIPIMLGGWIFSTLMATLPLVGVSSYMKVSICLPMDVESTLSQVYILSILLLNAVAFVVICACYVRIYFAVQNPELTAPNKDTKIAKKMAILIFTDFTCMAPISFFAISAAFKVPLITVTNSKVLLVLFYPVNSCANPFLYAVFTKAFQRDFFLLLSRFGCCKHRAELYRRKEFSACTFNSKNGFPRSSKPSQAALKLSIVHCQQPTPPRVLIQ

Progesterone synthesis in MA10 cells, EC50 [1]: 6.9 ng/mL
Progesterone synthesis in MA10 cells, Max (%) [1]: 100 % of WT-hCG
B1: wild-type human chorionic gonadotropin (ligand)
chain 1: not shown
chain 2: SKEPLRPRCRPINATLAVEKEGCPVCITVNTTICAGYCPTMTRVLQGVLPALPQVVCNYRDVRFESIRLPGCPRGVNPVVSYAVALSCQCALCRRSTTDCGGPKDHPLTCDDPRFQDSSSSKAPPPSLPSPSRLPGPSDTPILPQ

cAMP stimulation in JP09 cells, EC50 [2]: 6.7 ng/mL
cAMP stimulation in JP09 cells, Relative potency (WT = 1) [2]: 1 fold (WT = 1)
B2: wild-type human thyroid stimulating hormone (ligand)
chain 1: not shown
chain 2: FCIPTEYTMHIERRECAYCLTINTTICAGYCMTRDINGKLFLPKYALSQDVCTYRDFIYRTVEIPGCPLHVAPYFSYPVALSCKCGKCNTDYSDCIHEAIKTNYCTKPQKSY
